In patent US20140219982A1, “EXOGENOUS OPIOID PEPTIDE-DEGRADING ENZYME” (priority 2011, published 2014):

System: gliadorphin (YPQPQPF: SEQ ID NO: 2)
Assay: Analysis of gliadorphin degradation product by LC-MS
Assay type: biochemical

B1: papain (protein, UniProt P00784 134-345, looked up)
Papain: IPEYVDWRQKGAVTPVKNQGSCGSCWAFSAVVTIEGIIKIRTGNLNEYSEQELLDCDRRSYGCNGGYPWSALQLVAQYGIHYRNTYPYEGVQRYCRSREKGPYAAKTDGVRQVQPYNEGALLYSIANQPVSVVLEAAGKDFQLYRGGIFVGPCGNKVDHAVAAVGYGPNYILIKNSWGTGWGENGYIRIKRGTGNSYGVCGLYTSSFYPVKN
notes: protease, commercial (Asahi Food & Healthcare Co., Ltd.)
detection of undegraded 7-mer of gliadorphin (LC-MS of degradation product): undegraded 7-mer was detected | direct degradability for exomorphine peptide (papain alone, as shown in the examples): did not exhibit direct degradability
